Experimental data taken from US20040053822A1 (published 2004).
Like-named read-outs stand apart in the source and are kept apart here.

Assays:
[1] = biological target: HLA-DRB1*0301 (human); test: inhibition of 125I probe peptide binding to purified HLA
[2] = biological target: HLA-DRB1*0301 (human); test: as above; remark: listed apart in the source
[3] = biological target: HLA-DRB1*0101 (human); test: inhibition of 125I-probe binding to purified HLA-DR
[4] = biological target: HLA-A*0202 (human); test: competition with 125I probe peptide, purified HLA
[5] = biological target: HLA-A*0203 (human); test: competition with 125I probe peptide, purified HLA
[6] = biological target: HLA-A*6802 (human); test: competition with 125I probe peptide, purified HLA
[7] = biological target: HLA-A*0206 (human); test: competition with 125I probe peptide, purified HLA
[8] = biological target: HLA-A*0201 (human); test: competition with 125I probe peptide, purified HLA
[9] = biological target: HLA-B*5301 (human); test: competition vs 125I probe peptide, purified HLA
[10] = biological target: HLA-B*5401 (human); test: competition vs 125I probe peptide, purified HLA
[11] = biological target: HLA-B*0702 (human); test: competition vs 125I probe peptide, purified HLA
[12] = biological target: HLA-B*5101 (human); test: competition vs 125I probe peptide, purified HLA
[13] = biological target: HLA-B*3501 (human); test: competition vs 125I probe peptide, purified HLA
[14] = biological target: HLA-A*0201 (human); test: competition with 125I-labelled probe peptide for purified HLA-A*0201
[15] = biological target: HLA-A*0201 (human); test: competition with 125I probe peptide, purified HLA, gel filtration

| Binder | IC50 [9] [nM] | IC50 [10] [nM] | IC50 [13] [nM] | also measured |
| --- | --- | --- | --- | --- |
| IIAIEGDCAPEEKIW | – | – | – | relative binding ratio [1]: 0.066 IC50 standard/IC50 peptide; relative binding ratio [2]: 0.066 IC50 standard/IC50 peptide |
| LLIIVLAIIAIEGDC [MAGE2.201 (15-mer)] | – | – | – | IC50 [3]: ≤ 1000 nM |
| LIIVLAIIAIEGDCA [MAGE2.202 (15-mer)] | – | – | – | IC50 [3]: ≤ 1000 nM |
| KIWEELSML [MAGE2.220 9-mer KIWEELSML] | – | – | – | IC50 [4]: 642 nM; IC50 [5]: 175 nM |
| ALIETSYVKV [MAGE2.277 10-mer ALIETSYVKV] | – | – | – | IC50 [4]: 729 nM; IC50 [6]: 3080 nM; IC50 [7]: 1950 nM |
| HLYIFATCLGL [MAGE3.174 11-mer HLYIFATCLGL] | – | – | – | IC50 [4]: 741 nM; IC50 [8]: 56 nM |
| KLAELVHFL [MAGE3.112L2 KLAELVHFL] | – | – | – | IC50 [6]: 400 nM; IC50 [5]: 5.9 nM |
| KLAELVHFV [MAGE3.112L2V9 KLAELVHFV] | – | – | – | IC50 [6]: 73 nM |
| KMAELVHFV [MAGE3.112M2V9 KMAELVHFV] | – | – | – | IC50 [7]: 39 nM; IC50 [5]: 46 nM |
| FPKAGLLI [MAGE3.196.F1I8 FPKAGLLI] | 775 | 46 | – | – |
| FPKTGLLI [MAGE2.196.F1I8 FPKTGLLI] | 3320 | – | – | IC50 [11]: 134 nM |
| FPRALIETSYI [MAGE2.274.F1I11 FPRALIETSYI] | 465 | 127 | 3600 | IC50 [11]: 7.4 nM; IC50 [12]: 70 nM |
| FPRALIETSYV [MAGE2.274.F1 FPRALIETSYV] | 7750 | – | 4500 | IC50 [12]: 128 nM |
| FPRALVETSYV [MAGE3.274.F1 FPRALVETSYV] | – | – | 4240 | – |
| FPRALVETSYI [MAGE3.274.F1I11 FPRALVETSYI] | 620 | 59 | 5540 | – |
| FPHISYPPL [MAGE2.296.F1 FPHISYPPL] | – | – | – | IC50 [12]: 177 nM |
| FPHISYPPI [MAGE3.296.F1I9 FPHISYPPI] | 233 | 1.4 | 360 | – |
| FPQGASSI [MAGE3.64.F1 FPQGASSI] | 3000 | 400 | – | – |
| FPTTMNYPL [MAGE3.71.F1 FPTTMNYPL] | 39 | 3 | 4.5 | IC50 [11]: 6.4 nM; IC50 [12]: 423 nM |
| FPTTMNYPI [MAGE3.71.F1I9 FPTTMNYPI] | 8.5 | 1.5 | – | IC50 [11]: 59 nM |
| FPTTMNYPLW [MAGE3.71.F1 FPTTMNYPLW] | – | – | – | IC50 [11]: 220 nM |
| FPLWSQSI [MAGE3.77.F1 FPLWSQSI] | 245 | – | 1010 | IC50 [11]: 122 nM |
| FPIGHLYII [MAGE3.170.F1I9 FPIGHLYII] | – | 0.6 | – | IC50 [12]: 5 nM |
| FPIGHLYIFA [MAGE3.170.F1 FPIGHLYIFA] | 179 | 0.4 | 51 | IC50 [11]: 39 nM; IC50 [12]: 56 nM |
| FPIGHLYIFI [MAGE3.170.F1I10 FPIGHLYIFI] | 8.5 | – | 139 | – |
| FPKAGLLIIV [MAGE3.196.F1 FPKAGLLIIV] | 4650 | 1.1 | 878 | IC50 [11]: 220 nM; IC50 [12]: 190 nM |
| FPKAGLLIII [MAGE3.196.F1I10 FPKAGLLIII] | 846 | – | – | IC50 [12]: 65 nM |
| GLEARGEAL [MAGE2 peptide, position 15, 9 amino acids] | – | – | – | relative binding ratio [14]: 0.0001 ratio |
| GLEARGEAL [MAGE3 peptide, position 15, 9 amino acids] | – | – | – | relative binding ratio [15]: 0.0001 ratio (IC50 standard / IC50 test peptide) |
